Experimental data reported in paper PMC4244111, “Structure of Putrescine Aminotransferase from Escherichia coli Provides Insights into the Substrate Specificity among Class III Aminotransferases” (PLoS ONE, 2014).

Target: the molecule itself
Test: crystal structure; crystals by hanging-drop vapour diffusion at 22°C (15% PEG 3350, 0.2 M sodium formate, 0.1 M HEPES pH 7.5); free enzyme at 2.3 Å and putrescine-soaked at 2.1 Å; four molecules in the asymmetric unit; dimer interface analysed with PISA

B1: YgjG putrescine aminotransferase from Escherichia coli (enzyme, UniProt P42588 1-459, looked up)
chain: MNRLPSSASALACSAHALNLIEKRTLDHEEMKALNREVIEYFKEHVNPGFLEYRKSVTAGGDYGAVEWQAGSLNTLVDTQGQEFIDCLGGFGIFNVGHRNPVVVSAVQNQLAKQPLHSQELLDPLRAMLAKTLAALTPGKLKYSFFCNSGTESVEAALKLAKAYQSPRGKFTFIATSGAFHGKSLGALSATAKSTFRKPFMPLLPGFRHVPFGNIEAMRTALNECKKTGDDVAAVILEPIQGEGGVILPPPGYLTAVRKLCDEFGALMILDEVQTGMGRTGKMFACEHENVQPDILCLAKALGGGVMPIGATIATEEVFSVLFDNPFLHTTTFGGNPLACAAALATINVLLEQNLPAQAEQKGDMLLDGFRQLAREYPDLVQEARGKGMLMAIEFVDNEIGYNFASEMFRQRVLVAGTLNNAKTIRIEPPLTLTIEQCELVIKAARKALAAMRVSVEEA
modifications: PLP covalently linked to Lys300 via a Schiff base linkage (free enzyme)
notes: YgjG putrescine aminotransferase (EC 2.6.1.82), Escherichia coli; The seven N-terminal and one C-terminal residues and the His tag are not visible in the electron density; also called PATase; source: E. coli B834(DE3), purified (Ni-NTA, ion-exchange chromatography, size-exclusion chromatography); not shown: His6, C-terminal, kept
stoichiometry N: 2
